Assay results from patent US20100047226.

How the values were obtained:
[1] = biological target: active AKT1 (purified, Upstate Biotechnology) (UniProt P31749)
[2] = biological target: active AKT1 mutant with a Ser473Asp mutation (UniProt P31749)
[3] = biological target: active AKT1 mutant with a deletion in the PH domain (UniProt P31749)
[4] = tested on: T1, ZaTa peptide (PKAc fragment flanking Thr-197)
T1 sequence: AKRVKGRTWTLCGTPEY

[5] = tested on: T2, control peptide (adjacent overlapping PKAc peptide)
T2 sequence: GFAKRVKGRTWTL

[6] = tested on: full-length, active PKAc (purified)

Chain of active AKT1 (purified, Upstate Biotechnology) (P31749 whole entry, looked up): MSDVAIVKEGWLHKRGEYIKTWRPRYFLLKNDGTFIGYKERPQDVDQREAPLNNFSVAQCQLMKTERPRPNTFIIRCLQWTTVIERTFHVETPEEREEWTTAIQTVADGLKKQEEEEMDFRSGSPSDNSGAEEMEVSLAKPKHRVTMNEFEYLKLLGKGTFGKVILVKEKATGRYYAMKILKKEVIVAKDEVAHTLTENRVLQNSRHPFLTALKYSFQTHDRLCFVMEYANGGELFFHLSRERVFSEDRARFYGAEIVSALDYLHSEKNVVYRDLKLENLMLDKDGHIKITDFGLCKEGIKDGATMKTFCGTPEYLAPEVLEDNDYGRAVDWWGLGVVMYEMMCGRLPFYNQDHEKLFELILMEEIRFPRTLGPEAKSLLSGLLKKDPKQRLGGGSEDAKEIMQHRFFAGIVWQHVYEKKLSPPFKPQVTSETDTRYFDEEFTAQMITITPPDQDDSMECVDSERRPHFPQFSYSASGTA
Chain of active AKT1 mutant with a Ser473Asp mutation (P31749 whole entry S473D, the tested form may be a part): as the sequence (P31749 whole entry, looked up) above, with S473D counted along it
Chain of active AKT1 mutant with a deletion in the PH domain (P31749 whole entry, looked up, stated change not applied, the tested form may be a part): as the sequence (P31749 whole entry, looked up) above

full-length, active PKAc (purified)
AKT kinase activity in vitro (Ser-9 GSK-3 GST fusion protein as substrate) [1]: the kinetic activity of AKT was dramatically reduced
AKT kinase activity in vitro [2]: The decrease in the catalytic activity of AKT by PKAc was also observed with two mutants and active forms of AKT1 ... the other one with a Ser473Asp mutation
AKT kinase activity in vitro [3]: The decrease in the catalytic activity of AKT by PKAc was also observed with two mutants and active forms of AKT1, one with a deletion in the PH domain

active AKT1 (purified, Upstate Biotechnology)
IC-50 of AKT1 catalytic activity (32P incorporation, CPM) [4]: IC-50 of the ZaTa peptide was within a nanomolar range in these assays
IC-50 of AKT1 in vitro catalytic activity (32P incorporation into Ser-21 GSK-3 substrate peptide) [4]: IC-50 ˜0.1 µM
phosphorylation of Ser-9 GSK-3 GST substrate in the AKT1 kinase assay (western blot) [4]: The phosphorylation level of Ser-9 GSK-3 GST substrate was significantly reduced after adding the ZaTa peptide to the AKT1 kinase assay
phosphorylation of ZaTa by AKT (control kinase reactions with peptide and AKT only) [4]: ZaTa peptide itself was not a substrate for AKT
AKT1 in vitro catalytic activity (32P incorporation into Ser-21 GSK-3 substrate peptide) [5]: the adjacent overlapping peptide was not able to inhibit AKT1
PKA kinase activity in vitro (phosphorylation of DARPP-32 at Thr-34) [6]: addition of the active AKT to the PKA kinase assay increased the catalytic activity of PKAc
phosphorylation level of PKAc at Thr-197 in vitro [6]: the increase in the PKAc catalytic activity was accompanied by an increase in the phosphorylation level of PKAc at Thr-197

active PKAc purified from bovine tissue
AKT kinase activity in vitro [1]: the same inhibitory effect was observed with active PKAc purified from bovine tissue

human PKAc expressed in Sf9 cells
AKT kinase activity in vitro [1]: the same inhibitory effect was observed ... with human PKAc expressed in Sf9 cells
